Assay [1] has as its target FLAG-AP-DHX15 wild type (human) (UniProt O43143). Put plainly: proximity labelling.
For assay [2] the target is unchanged. The experiment in a line: split reporter.

FLAG-AP-DHX15 wild type (human), sequence (O43143 whole entry): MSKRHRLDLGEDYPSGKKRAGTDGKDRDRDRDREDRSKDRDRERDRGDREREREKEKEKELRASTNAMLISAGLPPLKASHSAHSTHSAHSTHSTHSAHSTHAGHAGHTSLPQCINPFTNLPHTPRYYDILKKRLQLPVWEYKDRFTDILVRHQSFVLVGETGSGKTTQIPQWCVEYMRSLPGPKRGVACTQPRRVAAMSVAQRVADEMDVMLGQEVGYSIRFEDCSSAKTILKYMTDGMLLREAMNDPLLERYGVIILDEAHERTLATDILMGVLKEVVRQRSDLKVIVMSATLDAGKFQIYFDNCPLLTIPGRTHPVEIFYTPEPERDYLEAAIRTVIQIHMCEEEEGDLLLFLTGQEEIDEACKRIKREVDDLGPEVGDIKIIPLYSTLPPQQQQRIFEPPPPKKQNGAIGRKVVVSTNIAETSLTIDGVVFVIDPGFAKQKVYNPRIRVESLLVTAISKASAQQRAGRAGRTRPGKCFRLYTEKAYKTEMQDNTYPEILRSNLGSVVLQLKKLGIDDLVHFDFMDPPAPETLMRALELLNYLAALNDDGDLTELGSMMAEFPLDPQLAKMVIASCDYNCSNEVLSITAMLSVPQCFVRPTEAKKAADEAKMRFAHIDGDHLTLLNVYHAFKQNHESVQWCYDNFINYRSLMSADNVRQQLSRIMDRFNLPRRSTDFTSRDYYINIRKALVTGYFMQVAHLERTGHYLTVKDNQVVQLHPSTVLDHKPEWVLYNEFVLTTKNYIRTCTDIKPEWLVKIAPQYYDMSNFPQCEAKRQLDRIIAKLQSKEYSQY

The substance “HA-SUGP1-EX with the G-patch domain deleted (ΔGp) (from UniProt Q8IWZ8 1-645) (natural protein)” had a fold increase of HA-SUGP1-EX pull-down in assay [1] of 1.9 fold.

Consider “SUGP1 G-patch domain alone fused to an SV40 NLS (Gp-nls), HA-EX construct (domain or fragment)”, for which the fold increase of total biotinylated protein against FL SUGP1 in assay [2] amounted to 3.2 fold.

The values are drawn from publication PMC10842378.
